Substitutions are numbered along the chain they refer to.
T1: MftR WT (Mycobacterium smegmatis mc2155, UniProt A0QSB5 1-200)
T1 sequence: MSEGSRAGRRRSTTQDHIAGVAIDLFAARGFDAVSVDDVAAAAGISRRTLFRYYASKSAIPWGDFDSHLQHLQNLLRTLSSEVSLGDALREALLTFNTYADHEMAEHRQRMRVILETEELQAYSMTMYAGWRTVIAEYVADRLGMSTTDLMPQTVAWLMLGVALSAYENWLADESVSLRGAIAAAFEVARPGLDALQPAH

T2: MftR L120R (Mycobacterium smegmatis mc2155, UniProt A0QSB5 1-200, L120R)
T2 sequence: T1 sequence with L120R

T3: MftR M127A (Mycobacterium smegmatis mc2155, UniProt A0QSB5 1-200, M127A)
T3 sequence: T1 sequence with M127A

T4: MftR R48A (Mycobacterium smegmatis mc2155, UniProt A0QSB5 1-200, R48A)
T4 sequence: T1 sequence with R48A

T5: MftR D38A (Mycobacterium smegmatis mc2155, UniProt A0QSB5 1-200, D38A)
T5 sequence: T1 sequence with D38A

T6: MftR R29A (Mycobacterium smegmatis mc2155, UniProt A0QSB5 1-200, R29A)
T6 sequence: T1 sequence with R29A

T7: MftR D16R (Mycobacterium smegmatis mc2155, UniProt A0QSB5 1-200, D16R)
T7 sequence: T1 sequence with D16R

T8: MftR H68A (Mycobacterium smegmatis mc2155, UniProt A0QSB5 1-200, H68A)
T8 sequence: T1 sequence with H68A

B1: FAM-Omft (dsDNA)
DNA 1: TCCATTCTGGCACTCGATGCCATATAT
DNA 2: ATATATGGCATCGAGTGCCAGAATGGA

What was measured:
[1] = target: T1, MftR WT; assay: EMSA; conditions: EMSA: 50 mM Hepes, 50 mM NaCl, 0.1 mM EDTA, pH 7.5, room temperature 10 min, 5% PAGE in 1x TBE on ice; footprinting: 30 C 30 min; FP conditions not in material.
[2] = target: T2, MftR L120R; assay: fluorescence polarization; EMSA: 50 mM Hepes, 50 mM NaCl, 0.1 mM EDTA, pH 7.5, room temperature 10 min, 5% PAGE in 1x TBE on ice; footprinting: 30 C 30 min; FP conditions not in material. Text fold changes for R29A/R48A and L120R/M127A are swapped relative to Table 2; table values used; conditions: protein: recombinant; tags: His-tag (pET-28a); chain copies: 2; label: 6-FAM; blunt
[3] = target: T3, MftR M127A; assay: as above; conditions: protein: recombinant; tags: His-tag (pET-28a); chain copies: 2; label: 6-FAM; blunt
[4] = target: T4, MftR R48A; assay: as above; conditions: protein: recombinant; tags: His-tag (pET-28a); chain copies: 2; label: 6-FAM; blunt
[5] = target: T5, MftR D38A; assay: as above; conditions: protein: recombinant; tags: His-tag (pET-28a); chain copies: 2; label: 6-FAM; blunt
[6] = target: T1, MftR WT; assay: as above; conditions: protein: recombinant; tags: His-tag (pET-28a, NdeI/XhoI); chain copies: 2; label: 6-FAM; blunt
[7] = target: T6, MftR R29A; assay: as above; conditions: protein: recombinant; tags: His-tag (pET-28a); chain copies: 2; label: 6-FAM; blunt
[8] = target: T7, MftR D16R; assay: EMSA; 100 uM oleoyl-CoA; EMSA: 50 mM Hepes, 50 mM NaCl, 0.1 mM EDTA, pH 7.5, room temperature 10 min, 5% PAGE in 1x TBE on ice; footprinting: 30 C 30 min; FP conditions not in material. Text fold changes for R29A/R48A and L120R/M127A are swapped relative to Table 2; table values used; conditions: protein: recombinant; tags: His-tag (pET-28a); chain copies: 2; label: 6-FAM; blunt
[9] = target: T8, MftR H68A; assay: as above; conditions: protein: recombinant; tags: His-tag (pET-28a); chain copies: 2; label: 6-FAM; blunt

| Molecule | Kd [1] [µM] | Kd [2] [µM] | Kd [3] [µM] | Kd [4] [µM] | binding result [5] | Kd [6] [µM] | Kd [7] [µM] | binding result [8] | binding result [9] |
| --- | --- | --- | --- | --- | --- | --- | --- | --- | --- |
| Pmft | 0.6 |  |  |  |  |  |  |  |  |
| B1 |  | 28 ± 6 | 13 ± 6 | 13 ± 1.1 | no binding | 1.3 ± 0.6 | 20.5 ± 2 | binds | binds |

Reference: publication PMC8728441, “Biosynthesis of the redox cofactor mycofactocin is controlled by the transcriptional regulator MftR and induced by long-chain acyl-CoA species” (The Journal of Biological Chemistry, 2021)
